Experiment: yeast display, Sf9 membrane polyspecificity reagent, FACS + sequencing; frameworks hold sequencing errors
Procedure, shortened: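 In a synthetic yeast display library (Saccharomyces cerevisiae BJ5465), nanobody expression was induced with galactose for 36–48 hours. FACS gates were set low and high (top ~1%) using anti-HA fluorescence for expression and streptavidin fluorescence for binding of the Sf9 membrane reagent. Each polyreactivity label is drawn from the gate of origin.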

Sequence	polyreactivity (PSR sort gate)
QVQLVESGGGLVQAGGSLRLSCAASGFIFYRYVMGWYRQAPGKERELVAAITWSGGSTYYADSVKGRFTISRDNAKNTVYLQMNSLKPEDTAGNYCAAEWWLPSFGMDYWGQGTQVTVSS	low polyreactivity
QDQLVESGGGLVQAGGRLRLSCAASGFIFYSYVMGRYRQAPGKERELVASIRSRGGSTYYADSVKGRFTISRDNAKNTVYLQMNSLKPEDTAVYYCAADLYLSPSWYKYDYWGQGTQVTVSS	low polyreactivity
QVQLVESGGGLVQAGGSLRLSCAASGSTYYYAMGWYREAPGKERELVAAISSSSGSTYYADSVKGRFTISRDNAKNTVYLQLNSLKPEDTAVYYCAAEGYKGWVYEYDYWGQGTQVTVSS	low polyreactivity
QVQLVESGGGLVQAGGSLRLSCAASGNTFKYYAMGWYRQAPGKERELVATISRTAGSTYYADSVKGRFTISRDNAKNTVYLQMNSLKPDDTAVYYCNKDRGHPFKYDYWGQGTQVTVSS	low polyreactivity
QVQLVETGGGLVQAGGSLRLSCAASGFTFKFNTMGWYRQAPGKERELVAAISWRGGDTSYADSVKGRFTISRDNAKNTVYLQMNSLKPEDTAVYYCAASPRYPYWYDYWGQGTQVTVSS	low polyreactivity
QVQLVESGGGLVQAGGSLRLSCAASGSISYRYAMGWYRQAPGKERELVAGISRSGGSTSYADSVKGRFTISRDNAKNTVYLQMNSLKPEDTAVYYCNRPSSLAWPWTGSFSRYDYWGQGTQVTVSS	low polyreactivity
QVQLVESGGGLVQAGGSLRLSCSASGSTLAKYAMGWYRQAPGKERELVAAISWSGGRTYYADSVKGRFTISRDNAKNTVYLPMNSLKPEDTAVYYGAARALSSRTYHDDYWGQGTQVTVSS	high polyreactivity
QVQLVESGGGLVQAGGSLRLSCAASGRTFGRNAMGWYRQAPGKERELVAAITWSGGRTYYADSVKGRFSISRDNAKNTVYLQMNSLKPEDTAVYYCARGSSSISIFYRYDYWGQGTQVTVSS	high polyreactivity
QVQLVESGGGLVQAGGSLRLSCAASGYIFGSYAMGWYSQAPGKERELVATISYRAGRTYYADSVKGRFTISRDNAKNTVDLQMNSLTPEDTAVYYCAADLVIYLEYDYWGQGTQVTVSS	low polyreactivity
QVQLVESGGGLVQAGGSLRLSCAASGSISYQNAMGWYRQATGKERELVAAISGDGDSMYYADSVKGRFTISRDNAKNTVYLQMNSLKPEDTAVYYCAAEPNVYFSVFVLFPSDYWGQGTQVTVSS	low polyreactivity
QVQLVESGGGLVQAGGSLRLSCAASGITFGYYAMGWYRQAPGKERELVAAITYSGGSTYYADSVKGRFTISRDNAKNTVYLQMNSLKPEDTAVYYCNADWWAYYSFGHEYWGQGTQVTVSS	low polyreactivity
QVQLVESGGGLVQAGGSLRLSCAASGRIFYNYAMGWSRQAPGKERELVAAISGSGGSTYYADSVKGRFTISRDNAKNTVYLQMNSLKPEDTAVYYCSTSGPQYYSRNFDYWGQGTQVTVSS	low polyreactivity
QVQLVESGGGLVQAGGSLRLSCAASGRTFQSNGMGWYRQAPGKERELVAAITWSSGTTYYADSVKGRFTISRDNAKNTVYLQMNSLKPEDTAVYYCAADWGHWNSLYYSGFGYWGQGTQVTVSS	low polyreactivity
QVQLVESGGGLVQAGGSLRLSCAASGLTLTYYAMGWYRQAPGKERELVAAISSSGGSTYYADSVKGRFTISRDNAKNTVYLQMNSLKPEDTAVYYCAARDWASHTPFDYWGQGTQVTVSS	high polyreactivity
QVQLVESGGGLVQAGGSLRLICAASGSIFPHYAMGWYRPAPGKERELVAAISRGGSTNYADSVKGRFTISRDNAKNTVYLQMNSLKPEDTAVYYCNALRYYSRFMYAVAYRYDYWGQGTQVTVSS	high polyreactivity
QVQLVESGGGLVQAGGSLRLSCAASGLIFYPYAMGWYRQAPGKERELVAAITSDGSTYYADSVKGRFTISRDNAKNTVYLQMNSLKPEDTAVYYCAVVVAYFDDDYGLSWFYEYDYWGQGTQVTVSS	low polyreactivity

Sequence	polyreactivity (PSR sort gate)
QVQLEESGGGLVQAGGSLRLSCAASGLIFIVYAMGWYRQAPGKERELVAAISFSGGSTYYADSVKGRFTISRDNAKNTVYLQMNSLKPEDTAVYYCAARARYTRRGRNYDYWGQGTQVTVSS	high polyreactivity
QVQLVESGGGLVQAGGSLRLSCAASGSIFSFYAMGWYRQAPGKERELVATISSGDNTNYADSVKGRFTISRDNAKNTVYLQMNSLKPEDTAVYYCAADAWGVDREYDYWGQGTQVTVSS	low polyreactivity
QVQLVESGGGLVQAGGSLRLSCAASGSTFKQYTMGWYRQATGKERELVAAINRGGTSTNYADSVKGRFTISRDNAKNTVYLQMNSLKPEDTAVYYCNAGYSWGRYYYWGQGTQVTVSS	low polyreactivity
QVQLVESGGGLVQAGGSLRLSCAASGFIFHRYAMGWYRQAPGKERELVAAITGRGSSTYYADSVKGRFTISRDNAKNTVYLQMNSLKPEDTAVYYCNAYRYQVYDTGWFGYWGQGTQVTVSS	high polyreactivity
QVQLVESGGGIVQAGGSLRLSCAASGGTFIRYAMGWYRQAPGKEREFVAAISASGGSTYYADSVKGRFTISRDNAKNTVYLQMNSLKPEDTAVYYCAARRTNLPVKFYYWGQGTQVTVSS	high polyreactivity
QVQLVESGGGLVQAGGSLRLSCAASGFTFVYNAMGWYRQAPGKERELVAAISKSGDRTYYADSVKGRFTISRDYAKNTVYLQMNSLKPEDTAVYYCNAKVVHGYQRFNYWGQGTEVTVSS	high polyreactivity
QVQLVESGGGLVQAGGSLRLSCAASGRIFSFNAMGWYRQAPGKERELVAGITDSGGSTYYADSVKGRFTISRDNAKNTVYFQMNSLKPEDTAVYYCNAEWPYSRVREYFYAYDYWGQGTQVTVSS	low polyreactivity
QVQLVESGGGLVQAGGSLRLSCAASGNIFQRYAMGWYRQAPGKERELVAAISYSGARTYYADSVKGRFTISRDNAKNTVYLQMNSLKPEDTAVYYCATYGGLTKFRLAYDYWGQGTQVTVSS	high polyreactivity
QDQLVESVVGLDQAGVSLRLSSAASGRTFRKYAMGCSRQAHGKERELVAAITSSGARTYYADSVKGRFTISRDNAKNTVYLQMNSLKPEDTAVYYCNAVSPYYGIEFEYWGLGTQVTVSS	high polyreactivity
QVQLVESGGGLVQAGGSLRLSCAASGRILWGNVMGWYRKAPGKERELVATITHGGSTNYADSVKGRFTISRDNAKNTVYLQMNSLKPEDTAVYYCARATRIQFYRRPYNYWGQGTQVTVSS	high polyreactivity
QVQLVESGGGLVQAGGSLRLSCAASGFTFGDYAMGWYRQAPGKERELVAVISSGGSTYYADSVKGRFTISRDNAKNTVYLQMNSLKPEDTAVYYCAKYVFRVWYHVFEVDYWGQGTQVTVSS	low polyreactivity
QVQLVESGGGLVQAGGSLRLSCAASGRIFQLYAMGWYRQAPGKERELVAANAWSGGSTYYADSVKGRFTISRDNAKNSVYLQMNSLKPEDTAVYDCAVEGYHGSRRYYYWGQGTQVTVSS	high polyreactivity
QVQLVESGGGLVQAGGSLRLSCAASGSISGYYAMGWYSQAPVKERELVASIRYTGARTYYADSVKGRFTISRDNAQNTVYLQMNSLKPEDTAVYYCAADVKRDRVWGGDYWGQGTQVTVSS	low polyreactivity
QVQLVESGGGLVQAGGSLRLSCAASGRTFGKYAMGWYRQAPGKERELVATISLSGGSTYYADSVKGRFTISRDNAKNTVYLQMNSLKPEDTAVYYCAARRKFDYWGQGTQVTVSS	high polyreactivity
QVQLVDSRRGLVQAGGSLRLSCAASGRIFGYNAMGWYREAPGKVRELVAAISSGGGTNYADSVKGRFTISRDNAKNPVYLQMHSLKPEDTAVYYCAVRRRRYHTYYRGYDYWGQGTQVTVSS	low polyreactivity
